B1: Azoarcus group I ribozyme (parent)
chain: GUGCCUUGCGCCGGGAAACCACGCAAGGGAUGGUGUCAAAUUCGGCGAAACCUAAGCGCCCGCCCGGGCGUAUGGCAACGCCGAGCCAAGCUUCGGCGCCUGCGCCGAUGAAGGUGUAGAGACUAGACGGCACCCACCUAAGGCAAACGCUAUGGUGAAGGCAUAGUCCAGGGAGUGGCGAAAGUCACACAAACCGG

Variants of: B1
Experiment: reverse-splicing fitness (ratio to wild type); higher = more active; in vitro selection; Mg2+ level not given
Outline: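 An in vitro group I ribozyme library with randomized positions was T7-transcribed and gel-purified. In triplicate, 10 pmol RNA in EPPS pH 7.5 was reacted with 50 pmoles of a 30-nt RNA substrate for 1 h at 37 °C across several added MgCl2 levels (1–48 mM), then stopped with EDTA. Products were reverse transcribed from a substrate-complementary primer, PCR-amplified and sequenced (HiSeq 4000). Fitness is a variant's read proportion after selection over that before, normalised to wild type.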

Row | Variant | reverse-splicing fitness
1 | C82U A120U A145G C150G C169U U176C | 0.00545
2 | C82U A120U A145G C150G C169U U176A | 0.00708
3 | C82U A120U A145G C150G C169U U176G | 0.00348
4 | C82U A120U A145U C150A C169A | 0.00179
5 | C82U A120U A145U C150A C169G | 0.00199
6 | C82U A120U A145U C150A C169U | 0.0022
7 | C82U A120U A145C | 0.153
8 | C82U A120U A145U | 0.181
9 | C82U A120U A145G | 0.167
10 | C82U A120G A145G C150U C169U U176G | 0.00441
11 | C82U A120G A145G C150U C169U U176C | 0.0164
12 | C82U A120G A145G C150U C169U U176A | 0.0207
13 | C82U A120G A145U C150A U176G | 0.00337
14 | C82U A120G A145U C150A U176A | 0.00948
15 | C82U A120G A145U C150A U176C | 0.0109
16 | C82U A120U A145C C150U C169U U176G | 0.0015
17 | C82U A120U A145C C150U C169U U176C | 0.00187
18 | C82U A120U A145C C150U C169U U176A | 0.00232
19 | C82U A120G A145U C150A C169G U176C | 0.0133
20 | C82U A120G A145U C150A C169G U176G | 0.0037
21 | C82U A120G A145U C150A C169G U176A | 0.0114

Row | Variant | reverse-splicing fitness
22 | C82U A120G A145U C150U C169G U176C | 0.0139
23 | C82U A120G A145U C150U C169G U176A | 0.0116
24 | C82U A120G A145U C150U C169G U176G | 0.00343
25 | C82U A120U A145G C169U | 0.00624
26 | C82U A120U A145G C169A | 0.00259
27 | C82U A120U A145G C169G | 0.00532
28 | C82U A120U A145U C150A C169U U176A | 0.0025
29 | C82U A120U A145U C150A C169U U176C | 0.002
30 | C82U A120U A145U C150A C169U U176G | 0.00172
31 | C82U A120G C150A C169G U176G | 0.00456
32 | C82U A120G C150A C169G U176C | 0.0214
33 | C82U A120G C150A C169G U176A | 0.018
34 | C82U A120G A145G C150G C169U U176C | 0.0118
35 | C82U A120G A145G C150G C169U U176A | 0.0122
36 | C82U A120G A145G C150G C169U U176G | 0.00698
37 | C82U A120U | 0.174
38 | C82U A120U A145U C150A U176C | 0.0101
39 | C82U A120U A145U C150A U176A | 0.00666
40 | C82U A120G A145G C150U C169G U176C | 0.0207
41 | C82U A120G A145G C150U C169G U176G | 0.00383
42 | C82U A120G A145G C150U C169G U176A | 0.0132

Row | Variant | reverse-splicing fitness
43 | C82U A120U A145C C150A C169A | 0.00144
44 | C82U A120U A145C C150A C169G | 0.00203
45 | C82U A120U A145C C150A C169U | 0.00232
46 | C82U A120G A145G C150A C169U | 0.0101
47 | C82U A120G A145G C150A C169A | 0.0113
48 | C82U A120G A145G C150A C169G | 0.0101
49 | C82U A120G A145U C150U C169U U176G | 0.00327
50 | C82U A120G A145U C150U C169U U176A | 0.022
51 | C82U A120G A145U C150U C169U U176C | 0.0154
52 | C82U A120G A145G C150U C169A | 0.0162
53 | C82U A120G A145G C150U C169G | 0.0218
54 | C82U A120G A145G C150U C169U | 0.0183
55 | C82U A120U A145C C150A C169A U176C | 0.00171
56 | C82U A120U A145C C150A C169A U176A | 0.00177
57 | C82U A120U A145C C150A C169A U176G | 0.00165
58 | C82U A120U A145G C150G C169G U176A | 0.00758
59 | C82U A120U A145G C150G C169G U176C | 0.00499
60 | C82U A120U A145G C150G C169G U176G | 0.00346
61 | C82U A120G C150G C169G U176A | 0.00641
62 | C82U A120G C150G C169G U176C | 0.0046
63 | C82U A120G C150G C169G U176G | 0.00357

Row | Variant | reverse-splicing fitness
64 | C82U A120U A145C C150A | 0.00884
65 | C82U A120U A145C C150G | 0.0193
66 | C82U A120U A145C C150U | 0.0391
67 | C82U A120G A145U C150U C169G | 0.0171
68 | C82U A120G A145U C150U C169U | 0.0143
69 | C82U A120G A145U C150U C169A | 0.014
70 | C82U A120G C169A | 0.0184
71 | C82U A120G C169G | 0.0242
72 | C82U A120G C169U | 0.0177
73 | C82U A120U A145C C169A U176C | 0.0016
74 | C82U A120U A145C C169A U176A | 0.00163
75 | C82U A120U A145C C169A U176G | 0.00159
76 | C82U A120G A145G C169G | 0.0254
77 | C82U A120G A145G C169U | 0.0197
78 | C82U A120G A145G C169A | 0.018
79 | C82U A120U A145C C150U C169A U176A | 0.00242
80 | C82U A120U A145C C150U C169A U176G | 0.00165
81 | C82U A120U A145C C150U C169A U176C | 0.00189
82 | C82U A120U A145C C150G C169G U176A | 0.00206
83 | C82U A120U A145C C150G C169G U176C | 0.0019
84 | C82U A120U A145C C150G C169G U176G | 0.00188
